# Measured values reported in patent publication US20260227403A1 (HENRY M JACKSON FOUNDATION FOR THE ADVANCEMENT OF MILITARY …, published 2026).
# T1: ERG3 (pCMV-ERG3 plasmid, Exons 5-16, NM_001136154) (UniProt P11308-3 40-486)
# T1 construct: Expressed in HEK-293 cells and tested as cell lysate on an immunoblot; also called ETS Transcription Factor ERG
# T1 sequence (looked up): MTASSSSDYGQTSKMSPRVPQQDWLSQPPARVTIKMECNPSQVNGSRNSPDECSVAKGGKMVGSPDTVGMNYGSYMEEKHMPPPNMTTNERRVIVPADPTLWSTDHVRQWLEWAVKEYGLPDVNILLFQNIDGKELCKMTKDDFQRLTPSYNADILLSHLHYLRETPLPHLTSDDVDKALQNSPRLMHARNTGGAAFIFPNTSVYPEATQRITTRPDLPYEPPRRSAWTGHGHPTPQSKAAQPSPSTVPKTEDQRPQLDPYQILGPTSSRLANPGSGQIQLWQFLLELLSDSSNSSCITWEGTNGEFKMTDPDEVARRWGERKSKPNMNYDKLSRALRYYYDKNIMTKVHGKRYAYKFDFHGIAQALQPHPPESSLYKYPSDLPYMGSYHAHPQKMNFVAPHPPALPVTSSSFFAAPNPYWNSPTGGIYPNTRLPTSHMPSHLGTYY
# T2: FLAG-SPDEF (NM_012391) (UniProt O95238 1-335)
# T2 construct: Expressed in HEK-293 cells and tested as cell lysate on an immunoblot; also called SAM pointed domain-containing ETS transcription factor; not shown: FLAG tag
# T2 sequence (looked up): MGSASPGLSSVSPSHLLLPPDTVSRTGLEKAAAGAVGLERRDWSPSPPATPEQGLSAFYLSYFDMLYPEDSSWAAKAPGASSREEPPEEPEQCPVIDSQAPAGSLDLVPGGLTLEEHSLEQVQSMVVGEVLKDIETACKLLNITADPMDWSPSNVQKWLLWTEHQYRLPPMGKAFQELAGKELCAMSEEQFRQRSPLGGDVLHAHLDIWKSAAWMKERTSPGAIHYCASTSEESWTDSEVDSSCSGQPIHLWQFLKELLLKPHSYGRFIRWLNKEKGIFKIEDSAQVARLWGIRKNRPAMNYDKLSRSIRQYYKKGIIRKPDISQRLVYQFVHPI
# How the values were obtained:
# [1] = biological target: T1, ERG3 (pCMV-ERG3 plasmid, Exons 5-16, …); test: immunoblot of cell lysates (HEK-293 2 µg per lane) probed with 29E4; the protein is shown present in panel C
# Protocol: (§1) Immunoblots using antibodies against ETV1 (A and H), ETV4 (B), ERG (C), SPDEF (D), FLI1 (E), FLAG (F), and GAPDH (G), as a loading control. […] PC3 cells were transfected with 25 nM non-targeting (NT) siRNA or ETV-1 siRNA oligos (lanes 1 and 2, respectively). […] were infected with either a control vector (lane 10) or adenoviral vector expressing FLI1 (lanes 11).
# (§2) Cell lysates were then cleared by centrifugation at 10,000×g for 15 minutes at 4° C. and transferred to fresh tubes. Protein concentration was measured using Protein Assay Reagent (Bio-Rad, Hercules, CA). […] Separated proteins were transferred onto PVDF membranes using a Trans-Blot SD semi-dry transfer cell (BioRad) at 25 V for 90 minutes. Membranes were blocked in blocking buffer (Tris buffered saline with 0.25% Tween 20 (TBST) containing 1% BSA) for one hour at room temperature before incubation with primary antibodies (1 ng/mL) for 12 hours at 4° C. Membranes were then washed with wash buffer (TBST) in three ten-minute washes before treatment with IRDye 680RD conjugated goat anti-rabbit or IRDye 800 RD conjugated goat anti-mouse secondary antibodies (LI-COR Biosciences, Lincoln, NE) for three hours at room temperature.
# [2] = biological target: T3, P21 (alanine substituted, FIG. 3 panel E); test: ELISA: 500 ng peptide coated per well, 29E4 at 40 ng/mL, HRP goat anti-rabbit Ig 1:16,000, ABS 450 nm, duplicates [CONT. 2]
# T3 construct: also called Y231 to alanine
# Text: (§3) HRP Goat anti-rabbit Ig was applied at 1:16,000 dilution in all reactions.
# (§4) Peptides were synthesized to achieve ≥70% HPLC purity by a commercial vendor (GenScript Biotech, Piscataway, NJ). Peptides were reconstituted in either water, or with addition of acetonitrile, methanol, 10% acetic acid, or DMSO, depending on the overall charge of each peptide. Key residues required for mAb binding were probed by ELISA using overlapping peptides, truncated peptides and alanine substituted peptides. Reactions were performed in duplicate using NUNC 96-well flatbottom MaxiSorp plates (Thermo Scientific). After coating each well with 500 ng of peptide in 100 μL coating buffer (50 mM NaHCO₃, pH 9.6), the plates were sealed and incubated at 4° C. overnight. […] Plates were then washed once with wash buffer, incubated with 100 μL mAb 29E4 (serially diluted from 1 mg/mL) for 1 hour at 37° C. Plates were further washed four times with wash buffer, and then incubated at 37° C. with 100 μL of a horse radish peroxidase (HRP)-conjugated secondary antibody against the primary antibody, diluted 1:16,000 according to manufacturer's protocols (KPL, Inc., Gaithersburg, MD). After washing four times with wash buffer, 100 μL of K-Blue Aqueous TMB substrate (Neogen, Lexington, KY) was added to the plates and incubated uncovered for 30 minutes at room temperature. To stop the reaction, 100 μL of 2 N Sulphuric acid was added to each well and absorbance were measured immediately at 450 nm. All dilutions of reagents were performed in ELISA diluent (20% NGS in 1×PBS with 0.1% Triton-X 100).
# [3] = biological target: T4, P8 (alanine substituted, FIG. 3 panel E); test: as above
# T4 construct: also called P218 to alanine
# Text: as §3, §4
# FLAG-SPDEF (NM_012391) = biological target: T2, FLAG-SPDEF (NM_012391); test: immunoblot of cell lysates (HEK-293 2 µg per lane) probed with 29E4; the protein is shown present in panels D and F
# Protocol: as §1, §2
# T3 sequence (peptide, as listed by the source): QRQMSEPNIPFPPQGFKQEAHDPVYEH
# T4 sequence (peptide, as listed by the source): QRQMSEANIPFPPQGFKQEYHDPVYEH
binder,measurement,setting,value
"ETV1 rabbit monoclonal antibody (29E4) (antibody, V domains shown, constant regions are not; also called 29E4 mAb; ETV1 29E4 mAb) VH: QELEESGGDLVKPGASLTLTCTASGFFFSAENHICWVRQAPGKGLEWIGCVYIGSYVGGSGDPYYASWAKGRFTISKTSSTTVTLQMSSLTAADTATYFCARDLGSLWGPGTLVTVSS VL: DVVMTQTASSVSAAVGGTVTIACQSSQSVYDNNNLAWFQQKPGQPPKRLIYSASTLASGVSSRFKGSGYGTQFTLTISDVQCDDAATYYCVGAFSGYIFVFGGGTEVVVK",binding result,[1],no binding
same,binding result,[2],binds
same,binding result,[3],binds
same,binding result,FLAG-SPDEF (NM_012391),no binding
